# Test results taken from PMC4768041.
# Experiments:
# Assay in all cases: SPR
# Settings in all cases: BIACORE 3000, RsmA-His6 (961 RU) on NTA chip; running buffer 10 mM Tris-HCl pH 7.5, 150 mM NaCl, 0.05% Tween (v/v), 1 mM [text truncated]; solutions degassed …
# [1] = test system: RsmA-His6 (Pseudomonas aeruginosa)
# [2] = test system: RsmA-His6 (Pseudomonas aeruginosa); remark: listed apart in the source
# [3] = test system: RsmA-His6 (Pseudomonas aeruginosa); remark: listed apart in the source
substance,measurement,setting,value
cupA1 leader RNA,binding signal (% lower RU than rsmZ RNA),[1],50
same,binding signal (% lower RU than rsmZ RNA),[2],67
same,binding signal (% lower RU than rsmZ RNA),[3],59
